Each block holds one sequence with its values, some of them ahead of it.
How the values were obtained:
[1] = biological target: HLA-B*51:01; experiment: IEDB peptide-MHC binding, purified MHC/direct/fluorescence; filed as Kd, often an IC50 or EC50 that approximates it; ≥ and ≤ were set here for values at or beyond the usual limits of such assays; details: source organism: Yellow fever virus
[2] = biological target: HLA-C*03:03; experiment: as above
[3] = biological target: HLA-B*35:01; experiment: as above; details: source organism: Yellow fever virus
[4] = biological target: HLA-A*02:01; experiment: IEDB peptide-MHC binding, purified MHC/competitive/fluorescence; filed as Kd, often an IC50 or EC50 that approximates it; ≥ and ≤ were set here for values at or beyond the usual limits of such assays
[5] = biological target: HLA-B*58:01; experiment: IEDB peptide-MHC binding, purified MHC/direct/fluorescence; filed as Kd, often an IC50 or EC50 that approximates it; ≥ and ≤ were set here for values at or beyond the usual limits of such assays
[6] = biological target: HLA-B*44:02; experiment: as above; details: source organism: West Nile virus
[7] = biological target: HLA-A*11:01; experiment: as above
[8] = biological target: HLA-A*31:01; experiment: as above
[9] = biological target: HLA-B*48:01; experiment: as above; details: source organism: West Nile virus
[10] = biological target: HLA-B*08:02; experiment: as above; details: source organism: West Nile virus strain PTRoxo
[11] = biological target: HLA-A*03:01; experiment: as above
[12] = biological target: HLA-A*01:01; experiment: as above
[13] = biological target: HLA-B*57:01; experiment: as above; details: source organism: West Nile virus
[14] = biological target: HLA-B*27:05; experiment: as above
[15] = biological target: HLA-B*40:01; experiment: as above
[16] = biological target: HLA-B*18:01; experiment: as above; details: source organism: West Nile virus
[17] = biological target: HLA-A*31:01; experiment: IEDB peptide-MHC binding, purified MHC/competitive/fluorescence; filed as Kd, often an IC50 or EC50 that approximates it; ≥ and ≤ were set here for values at or beyond the usual limits of such assays
[18] = biological target: HLA-B*07:02; experiment: IEDB peptide-MHC binding, purified MHC/direct/fluorescence; filed as Kd, often an IC50 or EC50 that approximates it; ≥ and ≤ were set here for values at or beyond the usual limits of such assays; details: source organism: Escherichia coli
[19] = biological target: HLA-A*24:03; experiment: as above
[20] = biological target: HLA-A*02:01; experiment: as above; details: source organism: Escherichia coli
[21] = biological target: HLA-A*69:01; experiment: as above; details: source organism: Escherichia coli
[22] = biological target: HLA-B*08:01; experiment: as above; details: source organism: Escherichia coli
[23] = biological target: HLA-B*15:01; experiment: as above
[24] = biological target: HLA-A*26:01; experiment: as above; details: source organism: Escherichia coli
[25] = biological target: HLA-A*02:12; experiment: IEDB peptide-MHC binding, purified MHC/competitive/fluorescence; filed as Kd, often an IC50 or EC50 that approximates it; ≥ and ≤ were set here for values at or beyond the usual limits of such assays; details: source organism: Escherichia coli
[26] = biological target: HLA-A*02:03; experiment: as above; details: source organism: Escherichia coli
[27] = biological target: HLA-A*02:11; experiment: as above; details: source organism: Escherichia coli
[28] = biological target: HLA-A*02:06; experiment: as above; details: source organism: Escherichia coli
[29] = biological target: HLA-B*58:01; experiment: IEDB peptide-MHC binding, purified MHC/competitive/radioactivity; filed as Kd, often an IC50 or EC50 that approximates it; ≥ and ≤ were set here for values at or beyond the usual limits of such assays
[30] = biological target: HLA-B*51:01; experiment: as above; details: source organism: Dengue virus 3 Martinique/1243/1999
[31] = biological target: HLA-A*01:01; experiment: as above; details: source organism: Dengue virus 3 Martinique/1243/1999
[32] = biological target: HLA-C*06:02; experiment: IEDB peptide-MHC binding, purified MHC/direct/fluorescence; filed as Kd, often an IC50 or EC50 that approximates it; ≥ and ≤ were set here for values at or beyond the usual limits of such assays
[33] = biological target: HLA-B*44:02; experiment: IEDB peptide-MHC binding, purified MHC/competitive/radioactivity; filed as Kd, often an IC50 or EC50 that approximates it; ≥ and ≤ were set here for values at or beyond the usual limits of such assays; details: source organism: Dengue virus 3 Sri Lanka/1266/2000
[34] = biological target: HLA-B*44:03; experiment: as above; details: source organism: Dengue virus 3 Sri Lanka/1266/2000
[35] = biological target: HLA-B*53:01; experiment: as above; details: source organism: Dengue virus 3 Sri Lanka/1266/2000
[36] = biological target: HLA-A*03:01; experiment: IEDB peptide-MHC binding, purified MHC/competitive/fluorescence; filed as Kd, often an IC50 or EC50 that approximates it; ≥ and ≤ were set here for values at or beyond the usual limits of such assays
[37] = biological target: HLA-B*46:01; experiment: IEDB peptide-MHC binding, purified MHC/direct/fluorescence; filed as Kd, often an IC50 or EC50 that approximates it; ≥ and ≤ were set here for values at or beyond the usual limits of such assays; details: source organism: Yellow fever virus
[38] = biological target: HLA-B*39:01; experiment: IEDB peptide-MHC binding, purified MHC/competitive/fluorescence; filed as Kd, often an IC50 or EC50 that approximates it; ≥ and ≤ were set here for values at or beyond the usual limits of such assays; details: source organism: Escherichia coli
[39] = biological target: HLA-A*26:01; experiment: as above
[40] = biological target: HLA-C*15:02; experiment: IEDB peptide-MHC binding, purified MHC/direct/fluorescence; filed as Kd, often an IC50 or EC50 that approximates it; ≥ and ≤ were set here for values at or beyond the usual limits of such assays; details: source organism: Pan troglodytes
[41] = biological target: HLA-C*14:02; experiment: as above; details: source organism: Pan troglodytes
[42] = biological target: HLA-B*46:01; experiment: IEDB peptide-MHC binding, purified MHC/competitive/fluorescence; filed as Kd, often an IC50 or EC50 that approximates it; ≥ and ≤ were set here for values at or beyond the usual limits of such assays; details: source organism: Pan troglodytes
[43] = biological target: HLA-B*57:01; experiment: as above; details: source organism: Pan troglodytes
[44] = biological target: HLA-B*27:03; experiment: as above; details: source organism: Pan troglodytes
[45] = biological target: HLA-B*15:01; experiment: as above; details: source organism: Pan troglodytes
[46] = biological target: HLA-B*18:01; experiment: as above; details: source organism: Pan troglodytes
[47] = source organism: Yellow fever virus
[48] = source organism: Vaccinia virus WR
[49] = source organism: West Nile virus
[50] = source organism: Mammarenavirus juninense
[51] = source organism: Escherichia coli
[52] = source organism: Escherichia coli E22
[53] = source organism: Pan troglodytes

Sequence: AATIRVLAL
Kd [1]: ≥ 20 µM | Kd [2, 47]: 9 nM | Kd [3]: ≥ 20 µM

Sequence: GLNDYLHSV
Kd [2, 48]: ≥ 20000 nM | Kd [4, 48]: 1.6 nM

Sequence: ILRNPGYAL
Kd [5, 49]: ≥ 20 µM | Kd [6]: ≥ 20 µM | Kd [7, 49]: ≥ 20 µM | Kd [8, 49]: ≥ 20000 nM | Kd [9]: ≥ 20 µM | Kd [10]: ≥ 20 µM | Kd [11, 49]: ≥ 20000 nM | Kd [12, 49]: ≥ 20 µM | Kd [13]: ≥ 20 µM | Kd [14, 49]: ≥ 20 µM | Kd [2, 49]: 157 nM | Kd [15, 49]: ≥ 20 µM | Kd [16]: ≥ 20 µM

Sequence: KLFDLHGRR
Kd [11, 50]: 241 nM | Kd [17, 50]: 11.1 nM

Sequence: KVLCPYMPK
Kd [7, 49]: 0.0037 µM | Kd [11, 49]: 562 nM | Kd ([17]; source organism: Japanese encephalitis virus): 60.5 nM

Kd [5, 51]: ≥ 20 µM | Kd [18]: ≥ 20 µM | Kd [19, 51]: ≥ 20000 nM | Kd [7, 51]: ≥ 20 µM | Kd [20]: 5.74 nM | Kd [21]: 4.76 nM | Kd [8, 51]: 562 nM | Kd [11, 51]: ≥ 20000 nM | Kd [12, 51]: ≥ 20 µM | Kd [22]: ≥ 20 µM | Kd [23, 51]: 234 nM | Kd [14, 51]: ≥ 20 µM | Kd [15, 51]: ≥ 20 µM | Kd [24]: 343 nM | Kd [25]: ≤ 0.1 nM | Kd [26]: ≤ 0.1 nM | Kd [27]: ≤ 0.1 nM | Kd [28]: 2.85 nM
Sequence: LMQWWSDYV

Sequence: LTAAVLLLI
Kd ([29]; source organism: Dengue virus 3 Martinique/1243/1999): 11.3 nM | Kd [30]: 647 nM | Kd [31]: ≥ 78.1 µM

Sequence: LYIEILRLL
Kd ([19]; source organism: Mycobacterium avium 104): 7 nM | Kd ([32]; source organism: Mycobacterium tuberculosis C): 44 nM

Sequence: MEITAEWLW
Kd ([29]; source organism: Dengue virus 3 Sri Lanka/1266/2000): 5.39 nM | Kd [33]: 4.63 nM | Kd [34]: 9.15 nM | Kd [35]: 32.1 nM

Kd [17, 52]: 246 nM | Kd [36, 52]: ≥ 20 µM
Sequence: MFIIKYFKK

Sequence: RSHAAIGAY
Kd [7, 47]: ≥ 20 µM | Kd [37]: ≥ 20 µM | Kd [23, 47]: 87 nM | Kd [17, 47]: ≥ 20000 nM

Kd ([2]; source organism: Escherichia coli B171): ≤ 1 nM | Kd [4, 51]: 1.7 nM | Kd [38]: 87.1 nM | Kd [39, 51]: 232 nM
Sequence: YIVGYYSAL

Kd [32, 53]: 6 nM | Kd [40]: 771 nM | Kd [41]: ≤ 1 nM | Kd [4, 53]: 130 nM | Kd [36, 53]: ≥ 20 µM | Kd [42]: ≥ 20 µM | Kd [43]: ≥ 20 µM | Kd [44]: ≥ 20 µM | Kd [45]: ≥ 20 µM | Kd [46]: ≥ 20 µM | Kd [39, 53]: ≥ 20000 nM
Sequence: YYFSYPLFV
